From the supplement of paper PMC9112550, “Optimization of the antimicrobial peptide Bac7 by deep mutational scanning” (BMC Biology, 2022)

system: Escherichia coli TOP10; test: shrunken log2 fold change of peptide-encoding DNA abundance (4.5 h post-induction vs induction); higher = less antimicrobial activity (less host growth inhibition); conditions: time post-induction: 4.5 h; library: site-saturation at positions 5, 18, 19, 20
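Also: peptides expressed intracellularly from a pBAD plasmid library in pooled LB shake-flask culture, induced with 0.3% L-arabinose, DNA abundance read by NGS, three biological replicates, DESeq2 with apeglm shrinkage.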

Row | Sequence | shrunken log2 fold change
1 | RRIRLRPPRLPRPRPRPEGLPRP | 0.206
2 | RRIRWRPPRLPRPRPRPVFSPRP | -0.0517
3 | RRIRCRPPRLPRPRPRPLMLPRP | -0.646
4 | RRIRIRPPRLPRPRPRPNRLPRP | -0.286
5 | RRIRDRPPRLPRPRPRPLETPRP | 0.73
6 | RRIRFRPPRLPRPRPRPKSHPRP | -0.506
7 | RRIRKRPPRLPRPRPRPFQTPRP | 0.12
8 | RRIRPRPPRLPRPRPRPNHGPRP | -0.0975
9 | RRIRMRPPRLPRPRPRPYDHPRP | -0.141
10 | RRIRNRPPRLPRPRPRPMDGPRP | -0.261
11 | RRIRKRPPRLPRPRPRPAKEPRP | -0.0233
12 | RRIRERPPRLPRPRPRPMFIPRP | -0.256
13 | RRIRVRPPRLPRPRPRPHPVPRP | -0.201
14 | RRIRQRPPRLPRPRPRPAHWPRP | 0.261
15 | RRIRHRPPRLPRPRPRPKDEPRP | 0.0349
16 | RRIRGRPPRLPRPRPRPYKWPRP | -0.0702
17 | RRIRYRPPRLPRPRPRPRSRPRP | 0.07
18 | RRIRIRPPRLPRPRPRPQHCPRP | -0.248
19 | RRIRRRPPRLPRPRPRPKMNPRP | -0.0665
20 | RRIRHRPPRLPRPRPRPWCIPRP | -0.228
21 | RRIRSRPPRLPRPRPRPPSYPRP | -0.555
22 | RRIRCRPPRLPRPRPRPCEYPRP | -0.163
23 | RRIRWRPPRLPRPRPRPNLSPRP | -0.197
24 | RRIRHRPPRLPRPRPRPVMSPRP | -0.0285
25 | RRIRERPPRLPRPRPRPVHVPRP | -0.389

Row | Sequence | shrunken log2 fold change
26 | RRIRFRPPRLPRPRPRPKSMPRP | 0.102
27 | RRIRGRPPRLPRPRPRPQGVPRP | -0.0465
28 | RRIRNRPPRLPRPRPRPSVAPRP | -0.0478
29 | RRIRNRPPRLPRPRPRPTKKPRP | 0.0702
30 | RRIRDRPPRLPRPRPRPQTGPRP | -0.283
31 | RRIRLRPPRLPRPRPRPGQVPRP | 0.318
32 | RRIRIRPPRLPRPRPRPPDRPRP | 0.109
33 | RRIRLRPPRLPRPRPRPAIVPRP | 0.0701
34 | RRIRARPPRLPRPRPRPSGQPRP | 0.251
35 | RRIRMRPPRLPRPRPRPWHDPRP | 0.162
36 | RRIRMRPPRLPRPRPRPLYYPRP | -0.53
37 | RRIRLRPPRLPRPRPRPWWMPRP | -0.0102
38 | RRIRKRPPRLPRPRPRPRINPRP | 0.0244
39 | RRIRCRPPRLPRPRPRPKIQPRP | -0.156
40 | RRIRHRPPRLPRPRPRPFQLPRP | -0.0386
41 | RRIRARPPRLPRPRPRPERKPRP | 1.16
42 | RRIRNRPPRLPRPRPRPLIWPRP | 0.0774
43 | RRIRTRPPRLPRPRPRPFGHPRP | -0.145
44 | RRIRARPPRLPRPRPRPFMDPRP | 0.00846
45 | RRIRDRPPRLPRPRPRPICNPRP | 0.324
46 | RRIRVRPPRLPRPRPRPTSMPRP | -0.192
47 | RRIRGRPPRLPRPRPRPYKNPRP | -0.22
48 | RRIRSRPPRLPRPRPRPPPWPRP | 0.651
49 | RRIRCRPPRLPRPRPRPIKCPRP | -0.165
50 | RRIRDRPPRLPRPRPRPRENPRP | 0.415

Row | Sequence | shrunken log2 fold change
51 | RRIRTRPPRLPRPRPRPQKWPRP | -0.147
52 | RRIRLRPPRLPRPRPRPEITPRP | -0.11
53 | RRIRCRPPRLPRPRPRPWSSPRP | 0.615
54 | RRIRYRPPRLPRPRPRPNNYPRP | -1.22
55 | RRIRWRPPRLPRPRPRPLGQPRP | 0.0349
56 | RRIRKRPPRLPRPRPRPWFFPRP | -0.043
57 | RRIRCRPPRLPRPRPRPNYEPRP | -0.442
58 | RRIRWRPPRLPRPRPRPNAFPRP | 0.0579
59 | RRIRRRPPRLPRPRPRPEPKPRP | 1.46
60 | RRIRSRPPRLPRPRPRPSDAPRP | 0.0409
61 | RRIRIRPPRLPRPRPRPYTKPRP | -0.203
62 | RRIRDRPPRLPRPRPRPSKDPRP | -0.242
63 | RRIRPRPPRLPRPRPRPDTAPRP | -0.0311
64 | RRIRHRPPRLPRPRPRPCLYPRP | -0.057
65 | RRIRERPPRLPRPRPRPAFHPRP | -0.154
66 | RRIRFRPPRLPRPRPRPLQIPRP | -0.384
67 | RRIRDRPPRLPRPRPRPGVYPRP | 0.0379
68 | RRIRKRPPRLPRPRPRPFYCPRP | -0.0322
69 | RRIRWRPPRLPRPRPRPFLNPRP | -0.425
70 | RRIRARPPRLPRPRPRPWVSPRP | -0.0266
71 | RRIRFRPPRLPRPRPRPMANPRP | -0.104
72 | RRIRTRPPRLPRPRPRPPRTPRP | 0.281
73 | RRIRKRPPRLPRPRPRPDEPPRP | 2.05
74 | RRIRARPPRLPRPRPRPQHRPRP | -0.281
75 | RRIRGRPPRLPRPRPRPHGIPRP | 0.00234

Row | Sequence | shrunken log2 fold change
76 | RRIRYRPPRLPRPRPRPRIIPRP | -0.457
77 | RRIRNRPPRLPRPRPRPWSYPRP | -0.0175
78 | RRIRERPPRLPRPRPRPQETPRP | 0.0209
79 | RRIRLRPPRLPRPRPRPRYSPRP | -0.087
80 | RRIRIRPPRLPRPRPRPVAVPRP | -0.104
81 | RRIRARPPRLPRPRPRPCSRPRP | 0.21
82 | RRIRNRPPRLPRPRPRPNAGPRP | -0.0954
83 | RRIRERPPRLPRPRPRPQYYPRP | -0.676
84 | RRIRGRPPRLPRPRPRPVIAPRP | 0.506
85 | RRIRFRPPRLPRPRPRPATKPRP | 0.217
86 | RRIRVRPPRLPRPRPRPRHKPRP | 0.13
87 | RRIRMRPPRLPRPRPRPLRDPRP | 2.66
88 | RRIRNRPPRLPRPRPRPEHSPRP | 0.0507
89 | RRIRPRPPRLPRPRPRPYKWPRP | -0.296
90 | RRIRERPPRLPRPRPRPWTMPRP | 0.0606
91 | RRIRCRPPRLPRPRPRPGCDPRP | 0.258
92 | RRIRDRPPRLPRPRPRPKPLPRP | 0.101
93 | RRIRDRPPRLPRPRPRPEWWPRP | -0.00197
94 | RRIRVRPPRLPRPRPRPAEFPRP | 0.151
95 | RRIRSRPPRLPRPRPRPCGMPRP | -0.0447
96 | RRIRYRPPRLPRPRPRPKCKPRP | -0.161
97 | RRIRSRPPRLPRPRPRPHCWPRP | -0.0424
98 | RRIRRRPPRLPRPRPRPHPAPRP | 0.583
99 | RRIRFRPPRLPRPRPRPDHEPRP | 0.193
100 | RRIRWRPPRLPRPRPRPLFTPRP | -0.137

Row | Sequence | shrunken log2 fold change
101 | RRIRTRPPRLPRPRPRPFKTPRP | 0.0238
102 | RRIRARPPRLPRPRPRPGEVPRP | 0.935
103 | RRIRPRPPRLPRPRPRPTHAPRP | 0.131
104 | RRIRPRPPRLPRPRPRPRFYPRP | 0.0111
105 | RRIRSRPPRLPRPRPRPEMGPRP | 0.128
106 | RRIRCRPPRLPRPRPRPIKQPRP | -0.062
107 | RRIRWRPPRLPRPRPRPIMIPRP | -0.28
108 | RRIRRRPPRLPRPRPRPQVWPRP | 0.409
109 | RRIRLRPPRLPRPRPRPRCMPRP | -0.0665
110 | RRIRFRPPRLPRPRPRPAPSPRP | 0.607
111 | RRIRYRPPRLPRPRPRPQSDPRP | -0.251
112 | RRIRFRPPRLPRPRPRPWHTPRP | -0.0673
113 | RRIRCRPPRLPRPRPRPNNDPRP | -0.643
114 | RRIRVRPPRLPRPRPRPWIGPRP | -0.166
115 | RRIRERPPRLPRPRPRPPDDPRP | 0.103
116 | RRIRNRPPRLPRPRPRPGNAPRP | 0.0258
117 | RRIRWRPPRLPRPRPRPGWLPRP | 0.375
118 | RRIRHRPPRLPRPRPRPEWTPRP | 0.0291
119 | RRIRQRPPRLPRPRPRPYCQPRP | -0.0564
120 | RRIRKRPPRLPRPRPRPNWFPRP | 0.188
121 | RRIRTRPPRLPRPRPRPGTGPRP | 0.257
122 | RRIRCRPPRLPRPRPRPIQRPRP | 0.0673
123 | RRIRDRPPRLPRPRPRPYESPRP | 0.00683
124 | RRIRSRPPRLPRPRPRPRRCPRP | 0.359
125 | RRIRQRPPRLPRPRPRPNMSPRP | -0.313

Row | Sequence | shrunken log2 fold change
126 | RRIRRRPPRLPRPRPRPERDPRP | 0.423
127 | RRIRCRPPRLPRPRPRPNDTPRP | -0.461
128 | RRIRCRPPRLPRPRPRPADPPRP | -0.195
129 | RRIRPRPPRLPRPRPRPWWCPRP | -0.258
130 | RRIRFRPPRLPRPRPRPAMDPRP | -0.0614
131 | RRIRWRPPRLPRPRPRPHGIPRP | 0.00741
132 | RRIRPRPPRLPRPRPRPRIYPRP | 0.0335
133 | RRIRTRPPRLPRPRPRPEFTPRP | 0.016
134 | RRIRERPPRLPRPRPRPVSGPRP | 0.386
135 | RRIRHRPPRLPRPRPRPGFKPRP | -0.206
136 | RRIRHRPPRLPRPRPRPTTSPRP | -0.146
137 | RRIRTRPPRLPRPRPRPYMWPRP | -0.233
138 | RRIRKRPPRLPRPRPRPSHLPRP | -0.124
139 | RRIRERPPRLPRPRPRPQGHPRP | -0.0972
140 | RRIRVRPPRLPRPRPRPSAVPRP | -0.0662
141 | RRIRFRPPRLPRPRPRPCHTPRP | -0.17
142 | RRIRVRPPRLPRPRPRPWSGPRP | -0.507
143 | RRIRDRPPRLPRPRPRPPATPRP | 0.75
144 | RRIRMRPPRLPRPRPRPFGIPRP | 0.0278
145 | RRIRCRPPRLPRPRPRPKHEPRP | -0.000422
146 | RRIRMRPPRLPRPRPRPTVSPRP | 0.0176
147 | RRIRSRPPRLPRPRPRPMENPRP | 0.0424
148 | RRIRSRPPRLPRPRPRPAWHPRP | 0.0201
149 | RRIRRRPPRLPRPRPRPKNMPRP | -0.00338
150 | RRIRQRPPRLPRPRPRPDRYPRP | 0.0513
